Experiment [1] concerns the target human CD47 ECD protein (human) (UniProt Q08722). The experiment is described as follows: competition ELISA: plate-coated human CD47 ECD (1 µg/mL), antibody titrated together with human SIRPα-His (1 µg/mL), bound SIRPα detected with anti-His-HRP. (In general: In an ELISA, binding on a coated surface is turned into a signal by an enzyme label.)
The target of experiment [2] is CD47 on human red blood cells (human) (UniProt Q08722). The experiment is described as follows: FACS on human red blood cells, goat anti-human IgG-Fc PE.
Experiment [3] deals with human CD47 on engineered CHO-K1 cells (human) (UniProt Q08722). The experiment is described as follows: competition FACS: CHO-K1 cells expressing human CD47, antibody titrated together with human SIRPα-His (1 µg/mL), bound SIRPα detected with anti-His-biotin and streptavidin-PE.
Experiment [4] addresses human CD47 ECD protein (human) (UniProt Q08722). The experiment is described as follows: ELISA on plate-coated human CD47 ECD (1 µg/mL), goat anti-human IgG-Fc-HRP, OD450.
Experiment [5] has as its target cynomolgus monkey CD47 on engineered CHO-K1 cells (cynomolgus monkey). The experiment is described as follows: FACS on CHO-K1 cells expressing cynomolgus CD47 (CHOK1-cynoCD47), goat anti-human IgG-Fc PE.
In experiment [6] the target is human CD47 ECD protein (human) (UniProt Q08722). The experiment is described as follows: ELISA on plate-coated human CD47 ECD (1 µg/mL), goat anti-human IgG-Fc-HRP, OD450; blank (Neg) 0.102.
Experiment [7] addresses cynomolgus monkey CD47 on engineered CHO-K1 cells (cynomolgus monkey). The experiment is described as follows: FACS on CHO-K1 cells expressing cynomolgus CD47 (CHOK1-cynoCD47), goat anti-human IgG-Fc PE; blank (Neg) 47.6.
The target of experiment [8] is human CD47 on engineered CHO-K1 cells (human) (UniProt Q08722). The experiment is described as follows: FACS on CHO-K1 cells expressing human CD47 (CHOK1-huCD47), goat anti-human IgG-Fc PE; blank (Neg) 34.8.
Experiment [9] has the same target. The experiment is described as follows: FACS on CHO-K1 cells expressing human CD47 (CHOK1-huCD47), goat anti-human IgG-Fc PE.
The target is the same in experiment [10]. The experiment is described as follows: competition FACS against human SIRPα-His (1 µg/mL) on CHOK1-huCD47 cells; ligand only 1086.
The target of experiment [11] is CD47 on human red blood cells (human) (UniProt Q08722). The experiment is described as follows: FACS on human red blood cells, goat anti-human IgG-Fc PE; blank (Neg) 232.
Experiment [12] has as its target human CD47 ECD protein (human) (UniProt Q08722). The experiment is described as follows: competition ELISA against human SIRPα-His (1 µg/mL) on plate-coated human CD47 ECD; ligand only 1.438.

Chain of cynomolgus monkey CD47 on engineered CHO-K1 cells (cynomolgus monkey) (chain, as listed by the source, change not shown): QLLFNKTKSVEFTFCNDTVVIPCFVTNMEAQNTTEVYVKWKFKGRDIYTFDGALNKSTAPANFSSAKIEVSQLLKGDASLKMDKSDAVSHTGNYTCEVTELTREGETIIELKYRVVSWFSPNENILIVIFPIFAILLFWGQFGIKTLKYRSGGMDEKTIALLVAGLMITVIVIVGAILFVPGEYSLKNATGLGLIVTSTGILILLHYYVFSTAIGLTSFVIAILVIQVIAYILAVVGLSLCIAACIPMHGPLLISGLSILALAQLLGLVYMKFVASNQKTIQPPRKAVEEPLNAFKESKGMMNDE

B1: W345-BMK1.uIgG4PE.K (antibody, from another filing, V domains shown)
VH: QMQLVQSGAEVKKTGSSVKVSCKASGFNIKDYYLHWVRQAPGQALEWMGWIDPDQGDTEYAQKFQDRVTITRDRSMSTAYMELSSLRSEDTAMYYCNAAYGSSSYPMDYWGQGTTVTV
VL: NIQMTQSPSAMSASVGDRVTITCKASQDIHRYLSWFQQKPGKVPKHLIYRANRLVSGVPSRFSGSGSGTEFTLTISSLQPEDFATYYCLQYDEFPYTFGGGTKVEIK
On to B1, for which the figures for the IC50 in experiment [1] and in experiment [3] were 0.97 nM and 0.51 nM, respectively. Further, the EC50 – broadly, the concentration that produces a half-maximal response – in experiment [2] is 0.69 nM; in experiment [4], 0.019 nM; in [5] it was 0.34 nM; in experiment [9] it was 0.43 nM. Moreover, the Max OD in [6] came out at 1.92 OD450. In addition, the Max MFI in [7] was found to be 34200 MFI; in experiment [8], 50000 MFI; in [11], 42800 MFI. Also, the Max Inhibit% came out at 71.3% in experiment [10] and 91.7% in [12]. For the same molecule, the Min MFI in experiment [10] came out at 312 MFI. Also, the Min OD in [12] was 0.12 OD450.

B2: W345-BMK4.uIgG4.SPK (antibody, from another filing, V domains shown)
VH: QVQLQESGPGLVKPSGTLSLTCAVSGVSIRSINWWNWVRQPPGKGLEWIGEIYHSGSTNYNPSLKSRVTISVDKSKNQFSLKLNSVTAADTAVYYCARDGGIAVTDYYYYGLDVWGQGTTVTVSS
VL: EIVLTQSPATLSLSPGERATLSCRASESVSSNLAWYQQKPGQAPRLLIYGAFNRATGIPARFSGSGSGTDFTLTISSLEPEDFAVYYCQQRSDWFTFGGGTKVEIK
As for B2, the results for the IC50 in experiment [1] and in [3] were 2.84 nM and 1.92 nM, respectively. Further, the EC50 in experiment [2] came out at 4.82 nM; in [4], 0.038 nM; in experiment [5], 38.9 nM; in experiment [9], 1.22 nM. This molecule gave a Max OD in [6] of 1.82 OD450. Also, the Max MFI in [7] came out at 30600 MFI; in experiment [8], 55400 MFI; in experiment [11], 37600 MFI. The Max Inhibit% in experiment [10] came to 67.4%; in experiment [12], 90.5%. This molecule had a Min MFI in experiment [10] of 354 MFI. In [12], this molecule showed a Min OD of 0.137 OD450.
